In US20260265780A1:

Target: CD8 (protein not named in Table 16)

B1: CD8 binder 97 (VHH) (VHH)
VHH: QVQLVESGGGLVQAGGSLRLSCAASGRTFSGYVMGWFRQAPGKQRKFVAAISRGGLSTSYADSVKGRFTISRDNAKNTVFLQMNTLKPEDTAVYYCAADRSDLYEITAASNIDSWGQGTLVTVSS
Highest Response (nm): 0.465 nm
Kd: 5.3 nM
koff: 0.000272 s⁻¹
kon: 51400 M⁻¹ s⁻¹
